Measured values: the RNAGym collection of RNA variant scans (doi:10.1093/molbev/msab373)

B1: Azoarcus group I ribozyme (parent)
chain: GUGCCUUGCGCCGGGAAACCACGCAAGGGAUGGUGUCAAAUUCGGCGAAACCUAAGCGCCCGCCCGGGCGUAUGGCAACGCCGAGCCAAGCUUCGGCGCCUGCGCCGAUGAAGGUGUAGAGACUAGACGGCACCCACCUAAGGCAAACGCUAUGGUGAAGGCAUAGUCCAGGGAGUGGCGAAAGUCACACAAACCGG

Variants of: B1
Assay: reverse-splicing fitness (ratio to wild type); higher = more active; in vitro selection; Mg2+ level not given
How it was run: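 An in vitro group I ribozyme library with randomized positions was T7-transcribed and gel-purified. In triplicate, 10 pmol RNA in EPPS pH 7.5 was reacted with 50 pmoles of a 30-nt RNA substrate for 1 h at 37 °C across several added MgCl2 levels (1–48 mM), then stopped with EDTA. Products were reverse transcribed from a substrate-complementary primer, PCR-amplified and sequenced (HiSeq 4000). Fitness is a variant's read proportion after selection over that before, normalised to wild type.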

Variant	reverse-splicing fitness
GUGCCUUGCGCCGGGAAACCACGCAAGGGAUGGUGUCAAAUUCGGCGAAACCUAAGCGCCCGCCCGGGCGUAUGGCAACGCCGAGCCAAGCUUCGGCGCCUGCGCCGAUGAAGGUGUAGUGACUAGACGGCACCCACCUAAGGCCAACGCUAUGGUGAAGGCAUAGUCUAGGGAGGGGCGAAAGUCACACAAACCGG	0.0133
GUGCCUUGCGCCGGGAAACCACGCAAGGGAUGGUGUCAAAUUCGGCGAAACCUAAGCGCCCGCCCGGGCGUAUGGCAACGCCGAGCCAAGCUUCGGCGCCUGCGCCGAUGAAGGUGUAGUGACUAGACGGCACCCACCUAAGGCCAACGUUAUGGUGAAGGCAUAGUCCAGGGAGGGGCGAAAGUCACACAAACCGG	0.167
GUGCCUUGCGCCGGGAAACCACGCAAGGGAUGGUGUCAAAUUCGGCGAAACCUAAGCGCCCGCCCGGGCGUAUGGCAACGCCGAGCCAAGCUUCGGCGCCUGCGCCGAUGAAGGUGUAGUGACUAGACGGCACCCACCUAAGGCCAACGUUAUGGUGAAGGCAUAGUCCAGGGAGCGGCGAAAGUCACACAAACCGG	0.222
GUGCCUUGCGCCGGGAAACCACGCAAGGGAUGGUGUCAAAUUCGGCGAAACCUAAGCGCCCGCCCGGGCGUAUGGCAACGCCGAGCCAAGCUUCGGCGCCUGCGCCGAUGAAGGUGUAGUGACUAGACGGCACCCACCUAAGGCCAACGUUAUGGUGAAGGCAUAGUCCAGGGAGAGGCGAAAGUCACACAAACCGG	0.328
GUGCCUUGCGCCGGGAAACCACGCAAGGGAUGGUGUCAAAUUCGGCGAAACCUAAGCGCCCGCCCGGGCGUAUGGCAACGCCGAGCCAAGCUUCGGCGCCUGCGCCGAUGAAGGUGUAGUGACUAGACGGCACCCACCUAAGGCCAACGUUAUGGUGAAGGCAUAGUCGAGGGAGUGGCGAAAGUCACACAAACCGG	0.0691
GUGCCUUGCGCCGGGAAACCACGCAAGGGAUGGUGUCAAAUUCGGCGAAACCUAAGCGCCCGCCCGGGCGUAUGGCAACGCCGAGCCAAGCUUCGGCGCCUGCGCCGAUGAAGGUGUAGUGACUAGACGGCACCCACCUAAGGCCAACGUUAUGGUGAAGGCAUAGUCUAGGGAGUGGCGAAAGUCACACAAACCGG	0.0928
GUGCCUUGCGCCGGGAAACCACGCAAGGGAUGGUGUCAAAUUCGGCGAAACCUAAGCGCCCGCCCGGGCGUAUGGCAACGCCGAGCCAAGCUUCGGCGCCUGCGCCGAUGAAGGUGUAGUGACUAGACGGCACCCACCUAAGGCCAACGCUAUGGUGAAGGCAUAGUCAAGGGAGCGGCGAAAGUCACACAAACCGG	0.00401
GUGCCUUGCGCCGGGAAACCACGCAAGGGAUGGUGUCAAAUUCGGCGAAACCUAAGCGCCCGCCCGGGCGUAUGGCAACGCCGAGCCAAGCUUCGGCGCCUGCGCCGAUGAAGGUGUAGUGACUAGACGGCACCCACCUAAGGCCAACGCUAUGGUGAAGGCAUAGUCAAGGGAGGGGCGAAAGUCACACAAACCGG	0.00153
GUGCCUUGCGCCGGGAAACCACGCAAGGGAUGGUGUCAAAUUCGGCGAAACCUAAGCGCCCGCCCGGGCGUAUGGCAACGCCGAGCCAAGCUUCGGCGCCUGCGCCGAUGAAGGUGUAGUGACUAGACGGCACCCACCUAAGGCCAACGCUAUGGUGAAGGCAUAGUCAAGGGAGAGGCGAAAGUCACACAAACCGG	0.00275
GUGCCUUGCGCCGGGAAACCACGCAAGGGAUGGUGUCAAAUUCGGCGAAACCUAAGCGCCCGCCCGGGCGUAUGGCAACGCCGAGCCAAGCUUCGGCGCCUGCGCCGAUGAAGGUGUAGUGACUAGACGGCACCCACCUAAGGCCAACGUUAUGGUGAAGGCAUAGUCAAGGGAGGGGCGAAAGUCACACAAACCGG	0.00156
GUGCCUUGCGCCGGGAAACCACGCAAGGGAUGGUGUCAAAUUCGGCGAAACCUAAGCGCCCGCCCGGGCGUAUGGCAACGCCGAGCCAAGCUUCGGCGCCUGCGCCGAUGAAGGUGUAGUGACUAGACGGCACCCACCUAAGGCCAACGUUAUGGUGAAGGCAUAGUCAAGGGAGCGGCGAAAGUCACACAAACCGG	0.00274
GUGCCUUGCGCCGGGAAACCACGCAAGGGAUGGUGUCAAAUUCGGCGAAACCUAAGCGCCCGCCCGGGCGUAUGGCAACGCCGAGCCAAGCUUCGGCGCCUGCGCCGAUGAAGGUGUAGUGACUAGACGGCACCCACCUAAGGCGAACGAUAUGGUGAAGGCAUAGUCCAGGGAGUGGCGAAAGUCACACAAACCGG	0.361
GUGCCUUGCGCCGGGAAACCACGCAAGGGAUGGUGUCAAAUUCGGCGAAACCUAAGCGCCCGCCCGGGCGUAUGGCAACGCCGAGCCAAGCUUCGGCGCCUGCGCCGAUGAAGGUGUAGUGACUAGACGGCACCCACCUAAGGCCAACGCUAUGGUGAAGGCAUAGUCGAGGGAGCGGCGAAAGUCACACAAACCGG	0.0504
GUGCCUUGCGCCGGGAAACCACGCAAGGGAUGGUGUCAAAUUCGGCGAAACCUAAGCGCCCGCCCGGGCGUAUGGCAACGCCGAGCCAAGCUUCGGCGCCUGCGCCGAUGAAGGUGUAGUGACUAGACGGCACCCACCUAAGGCCAACGCUAUGGUGAAGGCAUAGUCGAGGGAGAGGCGAAAGUCACACAAACCGG	0.0356
GUGCCUUGCGCCGGGAAACCACGCAAGGGAUGGUGUCAAAUUCGGCGAAACCUAAGCGCCCGCCCGGGCGUAUGGCAACGCCGAGCCAAGCUUCGGCGCCUGCGCCGAUGAAGGUGUAGUGACUAGACGGCACCCACCUAAGGCCAACGCUAUGGUGAAGGCAUAGUCGAGGGAGGGGCGAAAGUCACACAAACCGG	0.00318
